Assay results as given in patent US20220290113A1.

Molecular target: Plasmid-expressed Nme2Cas9 (human-codon-optimized, with NLSs and 3xHA tag), expressed in HEK293T cells (Neisseria meningitidis strain Del1444)
Test: cell-based or functional assay
Conditions: scale: mass ratio of Acr plasmid to Nme2Cas9 plasmid

Q: With AcrIIC1Nme as the substance, how does the dose dependence of Acr inhibition of Nme2Cas9 genome editing: mass ratio of cotransfected Acr and Nme2Cas9 plasmids giving full inhibition read?
A: The dose dependence of Acr inhibition of Nme2Cas9 genome editing: mass ratio of cotransfected Acr and Nme2Cas9 plasmids giving full inhibition was 2.

Q: With AcrIIC4Hpa as the substance, how does the dose dependence of Acr inhibition of Nme2Cas9 genome editing: mass ratio of cotransfected Acr and Nme2Cas9 plasmids giving full inhibition read?
A: The dose dependence of Acr inhibition of Nme2Cas9 genome editing: mass ratio of cotransfected Acr and Nme2Cas9 plasmids giving full inhibition was 1.
